Data taken from patent US20240132578A1.

Assays:
Assay in all cases: cell-based or functional assay
[1] = molecular target: aMLV envelope, on pseudovirus (negative control)
[2] = molecular target: HIV-1 Env of isolate MGRM-G-028 (subtype G), on pseudovirus (HIV-1)
[3] = molecular target: HIV-1 Env of isolate 6535.3 (subtype B) (HIV-1)
[4] = molecular target: HIV-1 Env of isolate MGRM-G-014 (subtype G), on pseudovirus (HIV-1)
[5] = molecular target: HIV-1 Env of isolate APV_17 (subtype B) (HIV-1)
[6] = molecular target: HIV-1 Env of isolate MGRM-G-011 (subtype G), on pseudovirus (HIV-1)
[7] = molecular target: HIV-1 Env of isolate APV 6 (subtype B) (HIV-1)
[8] = molecular target: HIV-1 Env of isolate MGRM-G-024 (subtype G), on pseudovirus (HIV-1)
[9] = molecular target: HIV-1 Env of isolate MGRM-G-001 (subtype G), on pseudovirus (HIV-1)
[10] = molecular target: HIV-1 Env of isolate MGRM-G-017 (subtype G), on pseudovirus (HIV-1)
[11] = molecular target: HIV-1 JR-CSF Env D474A (HIV-1 JR-CSF) (UniProt P20871)
[12] = molecular target: HIV-1 Env of isolate 93TH305 (subtype B) (HIV-1)
[13] = molecular target: HIV-1 Env of isolate MGRM-G-004 (subtype G), on pseudovirus (HIV-1)
[14] = molecular target: HIV-1 Env of isolate MGRM-G-019 (subtype G), on pseudovirus (HIV-1)
[15] = molecular target: HIV-1 Env of isolate MGRM-G-027 (subtype G), on pseudovirus (HIV-1)
[16] = molecular target: HIV-1 Env of isolate 92BR020 (subtype B) (HIV-1)
[17] = molecular target: HIV-1 Env of isolate MGRM-G-009 (subtype G), on pseudovirus (HIV-1)
[18] = molecular target: HIV-1 Env of isolate MGRM-G-025 (subtype G), on pseudovirus (HIV-1)
[19] = molecular target: HIV-1 Env of isolate MGRM-G-015 (subtype G), on pseudovirus (HIV-1)
[20] = molecular target: HIV-1 Env of isolate MGRM-G-016 (subtype G), on pseudovirus (HIV-1)
[21] = molecular target: HIV-1 Env of isolate MGRM-G-013 (subtype G), on pseudovirus (HIV-1)
[22] = molecular target: HIV-1 Env of isolate APV 13 (subtype B) (HIV-1)
[23] = molecular target: HIV-1 Env of isolate MGRM-G-006 (subtype G), on pseudovirus (HIV-1)

B1: PGT-130 (antibody, V domains shown)
VH: QVQLQESGPGLVKPAETLSLTCSVSGESINTGHYYWGWVRQVPGKGLEWIGHIHYTTAVLHNPSLKSRLTIKIYTLRNQITLRLSNVTAADTAVYHCVRSGGDILYYYEWQKPHWFSPWGPGIHVTVSS
VL: QSALTQPPSASGSLGQSVTISCNGTSSDIGGWNFVSWYQQFPGRAPRLIIFEVNKRPSGVPGRFSGSKSGNSASLTVSGLQSDDEGQYFCSSLFGRWDVVFGGGTKLTVL
How did the IC50 (µg/mL), neutralization of pseudovirus [1] turn out when B1 was run?
The IC50 (µg/mL), neutralization of pseudovirus was > 50 µg/mL.

What about the IC50 (µg/mL), neutralization of pseudovirus [2] of the same binder?
The IC50 (µg/mL), neutralization of pseudovirus was 0.074 µg/mL.

And the IC50 (µg/mL), pseudovirus neutralization [3]?
Its IC50 (µg/mL), pseudovirus neutralization is 0.031 µg/mL.

And the IC50 (µg/mL), neutralization of pseudovirus [4]?
Its IC50 (µg/mL), neutralization of pseudovirus is 2.23 µg/mL.

What about the IC50 (µg/mL), pseudovirus neutralization [5] of the same binder?
Its IC50 (µg/mL), pseudovirus neutralization is 10.7 µg/mL.

What about the IC50 (µg/mL), neutralization of pseudovirus [6] of the same binder?
Its IC50 (µg/mL), neutralization of pseudovirus is > 50 µg/mL.

What about the IC50 (µg/mL), pseudovirus neutralization [7] of the same binder?
The IC50 (µg/mL), pseudovirus neutralization was > 50 µg/mL.

And the IC50 (µg/mL), neutralization of pseudovirus [8]?
The IC50 (µg/mL), neutralization of pseudovirus was 5.84 µg/mL.

And the IC50 (µg/mL), neutralization of pseudovirus [9]?
Its IC50 (µg/mL), neutralization of pseudovirus is 0.0198 µg/mL.

What about the IC50 (µg/mL), neutralization of pseudovirus [10] of the same binder?
Its IC50 (µg/mL), neutralization of pseudovirus is > 50 µg/mL.

And the Fold IC50 increase relative to wild-type [11]?
Its Fold IC50 increase relative to wild-type is 2 fold.

What about the IC50 (µg/mL), pseudovirus neutralization [12] of the same binder?
The IC50 (µg/mL), pseudovirus neutralization was 0.021 µg/mL.

And the IC50 (µg/mL), neutralization of pseudovirus [13]?
The IC50 (µg/mL), neutralization of pseudovirus was > 50 µg/mL.

What about the IC50 (µg/mL), neutralization of pseudovirus [14] of the same binder?
The IC50 (µg/mL), neutralization of pseudovirus was 27.9 µg/mL.

And the IC50 (µg/mL), neutralization of pseudovirus [15]?
The IC50 (µg/mL), neutralization of pseudovirus was 4.14 µg/mL.

What about the IC50 (µg/mL), pseudovirus neutralization [16] of the same binder?
The IC50 (µg/mL), pseudovirus neutralization was 1.4 µg/mL.

And the IC50 (µg/mL), neutralization of pseudovirus [17]?
The IC50 (µg/mL), neutralization of pseudovirus was > 50 µg/mL.

And the IC50 (µg/mL), neutralization of pseudovirus [18]?
The IC50 (µg/mL), neutralization of pseudovirus was 8.45 µg/mL.

What about the IC50 (µg/mL), neutralization of pseudovirus [19] of the same binder?
Its IC50 (µg/mL), neutralization of pseudovirus is > 50 µg/mL.

And the IC50 (µg/mL), neutralization of pseudovirus [20]?
Its IC50 (µg/mL), neutralization of pseudovirus is > 50 µg/mL.

What about the IC50 (µg/mL), neutralization of pseudovirus [21] of the same binder?
Its IC50 (µg/mL), neutralization of pseudovirus is > 50 µg/mL.

And the IC50 (µg/mL), pseudovirus neutralization [22]?
The IC50 (µg/mL), pseudovirus neutralization was 0.052 µg/mL.

What about the IC50 (µg/mL), neutralization of pseudovirus [23] of the same binder?
The IC50 (µg/mL), neutralization of pseudovirus was > 50 µg/mL.
